Laboratory results published in the DeepSol protein solubility set.

Test: soluble on expression in E. coli; label from the status in PepcDB or PDB records
For “MAHHHHHHMGGFSSKNMEYYNYASMKLLDRSKYINEEEEEDDYHYCKETDIRETIKKAREIKNCNYKESMDLYIKALKTLKKLKENNSRIYRNVLEFEIRPQEIANSMSLKNSLEKNMYMKKEGDKDYTGGPSNDNQTISINNKIASLYNEIADLCCIHDFIEKSLFYYDKACSYNPSKIDYIYKKGVLFQQMNDTERAINTFKIILSSEPNHIPTLFSLGNLYRYIDNHIALSYFEAILKIEPNNTEVLSLIASCYDNLGKLNEAISYQNKAVQIDPDNFNHKKFAQRLIEMKSHN”, the “soluble on expression in E. coli” value was “not soluble”.
In the case of “MAHHHHHHMGHKNSSNISSAPVPPPFYVLPGVPVPSLKPSNLDFSATSGKPILCAGWIAPHGNRSWSRRNVVYSSEIEIPVPQPCQVRVKIYAAGVNPADAHRTAVLPSSPEVGTSGKSRRASRHPRPPFKFPYVVGIEGAGVVESVGWAAASSGERDGSAGALTSANARDIRVGDRVAFLADLMQESGGTFCQYAVVDSDVLWKLPEVVCAPPPSTGGLVPGRLIDFVEAASLPAAAATAYIALFDKLRIETQRAIFISGASGGVGSAAVQLAHYFGLYVIASCSTPNVRYVQSLGADYVVDYTRADVVEEILTYTDNYGVDYLLECAGAFMAEAHSETVRFGGALCVLTGLLSPRSDIVFRRQLSVHYVCLGMQHQDPLARTQLQPLGELVMQLYIQGAFSVNAEQVPFVQAADALDLVASGHGRGKIVLTNFHTNEEKEERLRRRHVQLYEKAQHQYQVEETQKAAGAAAATAASEAASREAG”, the “soluble on expression in E. coli” value was “not soluble”.
For “MAHHHHHHMGKALGMQRAKAQRLRKVVLRGSAAGSRSFLLYAQPTPNMLSETSGAVVDMCTDEFSIDIKEPSPEDAIVVASLTLRKKKMQKWREEKRTAAKPPKRAQSGASTCTLNFNKQETRWPLKISEC”, the “soluble on expression in E. coli” value was “not soluble”.
With “MAHHHHHHMGKKRFYAVAVGRQTGVFSTWEECQKQVSGFSGARFKSFLTLQEAQAYASGVQDVEPGSVGTSLVADSHTPVLVGVKRALSLDVTLDAVEVDAADDGNEVDDESKQQVLSPEWVEARKREAVVVYVDGACRNNGSRSRERRPRAGFGGFYGDGDSRNFKFPLPAHEPQTNQRAELSALIHVLRVALDSHPCYNLCVYSDSKYTVMGVNSYLHRWERNGFKTAGGGDVANIDLWSQLTKLRNRHLSRCAERFTMEFRFKASLAAIAARAVALQLKHVPGHAGVYGNEMADRLAVEACESPFG” the “soluble on expression in E. coli” value was “not soluble”.
In the case of “MAHHHHHHMGQSNGAALAKDTIASEQFLKYQEARHRIVHRAFVKCVVPSSKGKDDGYDLTPEERVCVEEFAILYAGFAKKEFLHFSSLYEQYQRDQYEKMRLEVMQQQARKDIQH”, the “soluble on expression in E. coli” value was “not soluble”.
For “MAHHHHHHMGSTDGECASSLRGHRMPSWILSHLETESKCLNDTPLVEEEKAPPSVPVTVLKKRFPQGLKILKKAPPKEKIVMPVEEECADSCRSSRPSVSVQSAVPGNGHRIARHTIRFRMSDWANLIEEKKDLVAQAVKEDISEGCGLDIGRILQLELKLTDILVVTFIVDHSHDDGGERPFHARLKVCKFPRTSSLYLLR”, the “soluble on expression in E. coli” value was “soluble”.
For “MAHHHHHHMGTLEAQTQGPGSMKNYRIESDSFGEIQIEEKFYWGAQTQRSLNNFKISKQKMPKILIRALAILKKCAAQVNYEFGDLEYKIATSIDKAIDRILAGEFEDNFPLVVWQTGSGTQTNMNMNEVIASIANEELTGKKGGKFPVHPNDHVNKGQSSNDSFPTAMHIATVLATKQQLIPALNNLLTYLQDKSKDWDKIIKIGRTHLQDATPLTLKQEFSGYITQIEYALERIEDALKKVYLLAQGGTAVGTGINSKIGFDIKFAQKVAEFTQQPFKTAPNKFESLAAHDALVEFSGTLNTIAVSLMKIANDIRLLGSGPRCGLGELHLPENEPGSSIMPGKVNPTQVEALTMVCTQVMGNHVTVTIAGSNGHLELNVFKPVIIYNILQSIELLSDSVNSFVTHCVKGLEPNIARINTLRDKSLMLVTVLNPHIGYDNAAKIAKEAHKYGITLKEAAKKLNFLSEEEFDKIVVPEKMIS”, the “soluble on expression in E. coli” value was “soluble”.
With “MAHHHHHHMGTLEAQTQGPGSMNAGLDQVDPIWHSIRAEAEEATRNDPVLGAFLYATILNQPSLEEAVMHRIAERLGHPDVSADILRQTFDTMLEANPEWSHVLRVDIQAVYDRDPAYSRFMDPVLYLKGFHAIQTHRLAHWLYKQGRKDFAYYLQSRSSSIFQTDIHPAARLGSGLFLDHATGLVVGETAVVEDNVSILHGVTLGGTGKSSGDRHPKIRQGVLIGAGAKILGNIQVGQCSKIAAGSVVLKSVPHNVTVAGVPARIIGETGCTEPSRVMDQMLGDGI” the “soluble on expression in E. coli” value was “soluble”.
With “MAHHHHHHMGTLEAQTQGPGSMTPAAHPPRAAIADIAGHLPEQVLTNDVLAQLYPDWPAEKILAKTGIRERRIAAPRETAADLAYEAARKLFAQGAVGADQVDFVILCTQAPDYVLPTSACMLQHRLGIPTHAGALDVNLGCSGYVYGLSLAKGLVETGAARCVLLLTADTYSKYLHPLDKSVRTLFGDGASATAVIAEHGELERIGPFVFGTDGRGAPNLIVKAGLFREPKSADSAREHEDASGNVRTDEHLYMNGAEVMAFSLAEVPRAADRLLALAGEPRENIDCFVLHQANRFMLDALRKKMKIPEHKFPVLMEHCGNTVSSTLPLALETMRANGTLARGMRLMLLGFGVGYSWAGCLVNF” the “soluble on expression in E. coli” value was “soluble”.
For “MAHHHHHHMHECKDDRVLEKIQQINGYENIKLGDKKVLCDEIWTVTRCDKKFSYWIRYYEEDKNGYSLSVLPTQLKNIYYFLKYYYF”, the “soluble on expression in E. coli” value was “not soluble”.
In the case of “MAHHHHHHMHIFIYIQYLCFGVNEIIFHKPHKCHFFIYNILEGEKGKKPGFINLSNIMNNHNKYESKGFSASSLNNKSFSMTNDKITCGNEKKEMEGEGILNGSSKVDEEDKNIYNSKNNNNNMNYFNNKKIETKKTLGHKDIFVYVLVAGGDGTVNWVLKEAEYYNINDNNFAIGVIPFGTGNDFAKAFGWKKIDRMLNHSFLFDVLKKIVDQTFKSKVEKHDYWNIHVVLKEQGYFNKINSRTKKKETLLNDDKENLHEMKLCMSNYFSIGIDSRIGRGFERHRQKSAVCNKFIYAVEGFKKVSFKKNTPINLIIDKMINMDNNNDNNDNDNNIDGNDNNNDGNDNNNVIFTTNHNESYPLLKKAMSIICINIPSYSSGNDIWNYTHKIGLILPKNITNDQKEQYQILKKTKQEVGDGILEFVIYQSGVDLGLEFTLKGRAYRVHQGFGPWKLLFKEQKYNVYFQVDGEYYLMSLPDYISIEHYKKINVLKNIL”, the “soluble on expression in E. coli” value was “not soluble”.
With “MAHHHHHHMIDPVKRDLTNLFLEKREMAKEEIDPRKDWLKRILLNNNTNDLRMFLKASELKTKEGDYCMTCKSNVKQLLYLHTKKNYCHLCEEIFCAYCVKSIDFMKDEKEKYIKIRLCRNCFIYINELKYIINPNLSVDRKAIDLQNSFNDISNCYTNLCSNVPQLNGLVLLCENNKEFLDSFKSEIKQLEEKIQHDVDFLNIMKKKNNFLSDNTLILNKMGKNLLLYLKIIRNKIIPSSIEVLNKTKELLYKK” the “soluble on expression in E. coli” value was “not soluble”.
With “MAHHHHHHMIRWAAVLRCGAHGVREDRQALARHHLNLLDKRHWELTTPSRALPVVEVLIRSGVLMDRLEKSSTKPLASLTPSMTKKERSLVQKLSHMLHQASPPTACRVSRNAVEEDEAVRAAYSAACATGACTIDVVVDLAFVRHLRFPLSALMLLELVESRCVKVCWTRGKPCLSKELLDSICDLFAEHEQSLDFRATWWLLSLLGGGTQVRDWPITLSAGKRLFRLCVRRIHYLLPDLPLEDLLLAYVQLARIEGYEKPFIVLGEMERLLLATSSDEYTGVSTNVLLRFMTMPFAVRHADLNLRLCAGWSAASRITEFTQEECLAAFAIVAALHEGCVAESAAAVAALRDWEMLHDALFAQVFCVAHEMTAADCFRILDQSELINVSGWGITVPQMLLEKLKKRILSECTHYAMDECRVPETAELLLRVALGLQALMQRYTVLPSSAADEHAVAECILLLERCITVLPPHG” the “soluble on expression in E. coli” value was “not soluble”.
For “MAHHHHHHMIVVSSPKATNYDEWEKQLKARRIIMNCPDEMVVKAMCAWMKRGLEPDKQVECWNMVEKHMEKVGPIPRHIFDEDDYIDRMSAVDDALLSIKPTDVGEHFTLRGSKLWYSEVPSHKLLKVVREITEKGAEVFLNASISADIGFRIADRLEKEMATKDFLLLILRWRDALVSHALEKLGLRAFMYGELVIAIVEGLKELPPPSPSKPRSSVLKVNYQGYPTRAVGLKELQGGVTRIPMEYRVLYIPKVENFPLVDGFFFVDSPRKTLVGLQMTTASAHHKITSTVNLFNERMAEYFNGWEELSRDLSWEMIYIQHALSKEISKWQRCGPVNTENLSDTEKEIVAFWDGRVHQYQFVLTPDFVSKIREMRIQQSWGKGIGKKVREIIGEQSAFRFGKYIGKYFNDFYVCVCAYGV”, the “soluble on expression in E. coli” value was “not soluble”.
With “MAHHHHHHMIYLIDNEDMIYIEFYRKKDCTFVYKFFNDTLPTGSTLSTSDVSAEYANIKYEINNNSCTVYSCDYSCLLKHKDYITIINNVLDKNLSDEILENYKNEKWLMYTKNDEEKLNLVIESNTLLRIKGKLRHEIIFGIPKKKKIQMQDKLMDRKNSYLVIFRFIREDNIKNFVTQKIKNKIPQNERQEKDCVPINVNEYTSEKLEKMYVLDVYNQIALHFGHTRAYEQEENVVGNRKFDSQDIFVPWYFQQQYKTEGYDDDAEGEGEEEPEKENEKEKEESHKFKPVKKGNMFKILKMKFFFFFYLLHNFRNIYIYNL” the “soluble on expression in E. coli” value was “soluble”.
In the case of “MAHHHHHHMKEDESDEPVQKKEYEKTFWEQIGKPKHILAPMVDLSELAFRLLCRNYNCHLTFTPMLHAKNFVEHEKYRKSYFQSCEKDEPVIAQFCGNNSKIILNAIEYIKNEVNAVDLNLGCPQQIAKKGNYGAFLLQKHDEVVNLVSDITNNCNIPITCKIRKIDQDYQKTLNLCYDLQSRNVKMITVHGRTKEEKGTNIKQCDYEIIKIIKERLNIPIIANGSIEHFEDIQKCLNYTKADAVMCAEILLEKPYFFSNQNVHTVDVVNEYYDLFLQYESNTKYLKGHLFKMLYKYFQVHTDLRDMLNNCHSLDDYVNFRSILNEKRSSGVLTESSLSWYRRYRKTE”, the “soluble on expression in E. coli” value was “not soluble”.
With “MAHHHHHHMKEHSHIIGLGDFFADAKKCWVLLASKSPRRIELMKLMGVSNLYICESGFEENLDKKQFASAEHYVKENALQKGLNVASHVWFGDQANTHSEGNVKEEETKKSTQQGSDSGHLSIGQPENEQHCTDATKKHQVKSLHSTYDPIPKVIISCDTIVTLKDEIIEKPLNKEHAREILKKLSSNIHCVYTAVCIFLHKTKVPITFIEKTDVHFDDLLEQDILEYLNSSEPYDKAGAYSIQGVGCQFIKKINGCYYNVMGLPINKLSKTLTQLCVEGKISA” the “soluble on expression in E. coli” value was “soluble”.
With “MAHHHHHHMKINNNEKSYILYQCLKLLIRLHDAGLSHLDLTPENILISDNYEMRLCDLSKSTPIYTYNLRHIKDVNRLYLFESCEPTIAKGAYMPPECWKIYWKYDTMKIKNPLKDLKNITDQEKRKQFYFDVSSADKFMLGVFFFWIWTNGNLWKCSDPLQDEDFFYFVKCDMNFDKFELTRKWPTDLKNIIKVGGAEQRRSG” the “soluble on expression in E. coli” value was “not soluble”.
With “MAHHHHHHMKTDDHLSQIHRMCRALGIRPGAPAPLIQPALTLQCPRLHTPMVVHEKPAAKIALPMLLSDSSGDVSYLAGQDSVGTLRMTPPGSPRTPALTSVSNMRHHAHLATSELPVSVLVASALSFVAAWRTEDSACTAQKDLIHCCLKARCDLELEEAGGRHRLNQLLLTVSEQMHRFVVMGEYSKFVVFCVDQEPVWRQAARQLQKENEARLHTTENIYSRFLMEEIAVSDKMRMFQEASDFVVSQGHAAREQRRRAQILAARRRCDRQSAPQETPMPFAPQSHLHPHQHKNESNAAALAGGWTPPQRQRPRDDSTDRRSGSSKERSSKNAKSHSTTEVDRYRQRWRKIIWFLSNGERGKPAPH” the “soluble on expression in E. coli” value was “not soluble”.
